The source of these data is a protein production outcome set (Wang et al. 2014).

The nature of this data set: label from the status in PepcDB records.
Consider “MAKYNEIAKKKREAKADRKRAIHGDPLTNKLKTRTPVPSVSGKRQRKLLRKWRREQKDMVEKGLVTMEDVEMASAQAASEDSKKSPRKFSVKKSLKLNKLNNKGKKKKNQKASGEKSADCMLE”, for which the protein production entry is given as “failed”.
On to “GVAVEVRGLPPAVPDELLTLYFENRRRSGGGPVLSWQRLGCGGVLTFREPADAERVLAQADHELHGAQLSLRPAPPRAPARLLLQGLPPGT”, for which the protein production entry is listed as “not failed”.
The result for “MIGIVAAFEKVKIPEMGKSFGTGWLPPLPSLKDYTEESAQIPEMAEKLGIPTSRKETKTLELPVSIDFRNWCSPIEDQMDLGSCTAHAGVGVVEYFERRAFGKHIDGSRFFVYKTTRNLMGVKGDTGAWLRNTMGALALCGVPPEKYFPYTSRKTPGPDGEPTFDDEPSSFVYSLADNFEALNYFCHDPQGMNLPPEDVILSVKKYLAAGIPSMFGFYGFPSFKDTDVKGGIPFPGPDERSIWGHAVVAVGYDDNMKIRNTLSNKETTGAFLIRNSWGTAWGDKGYGWLPYEYALNKFALDFWSLISMKWVETGNFGLELESSRSRARETLSRDMPLPHALEHHHHHH” reads “not failed”.
Take “MKKNYTYPFTAIVGQEEMKLALILNIINPAISGVLIRGEKGTAKSTAVRALADILPEIEVIAGIPFNLAPDEDDETIRECFTVTGHAMPDPDNLEVTMHKVQVVELPVGATEDRVVGTLDLEHALKTGEKRIEPGLLAAAHRGILYVDEVNLLDDHVVDVLLDSAAMGVNTIEREGVSFSHPARFTLVGTMNPEEGELRPQLLDRFGLCVHVGGIADPQDRVTVMERRFAFEQDQERFCSEWQGESSKLAERIVAARELYPSVTISREHLLGIAKSCLKVGVDGHRGDIIIMKTAKTIAAWEGRHCVGSDDIDRAVALALPHRIRRQPLQDMVMDVGSLLGSKCTTN”: the protein production result is “failed”.
With “SLSLRPSPRLLCTATKQKNSGQNLEEDMGQSEQKADPPATEKTLLEEKVKLEEQLKETVEKYKRALADTENLRQRSQKLVEEAKLYGIQAFCKDLLEVADVLEKATQCVPKEEIKDDNPHLKNLYEGLVMTEVQIQKVFTKHGLLKLNPVGAKFDPYEHEALFHTPVEGKEPGTVALVSKVGYKLHGRTLRPALVGVVKEA”, the protein production result is “not failed”.
As for “MMAEGGAADLDTQRSDIATLLKTSLRKGDTWYLVDSRWFKQWKKYVGFDSWDKYQMGDQNVYPGPIDNSGLLKDGDAQSLKEHLIDELDYILLPTEGWNKLVSWYTLMEGQEPIARKVVEQ”, the protein production result is on record as “not failed”.
As for “MSLRIVVTVKYVPDATGDRHFAEDLTVDRDDVDGLLSELDEYAVEQALQIADDADDADDAEITVLTVGPEDAKDALRKALSMGADKAIHVEDDDLHGTDVIGTSLVLAKAIEKAGYDLVISGMASTDGTAGVVPALLAERLGVPQVTLLSEVSVEDGVVKGRRDGDSASEQLEASLPAVVSVTDQSGEARYPSFKGIMAAKKKPVESWDLSDLDLEAEEVGLEGAWTKVDSATERPARTAGTIVKDEGEGGKQLAEFLAGQKFI”, the protein production entry is given as “failed”.
The entry for “FGAEFSSEACRELGFSSNLLCSSCDLLGQFNLLQLDPDCRGCCQEEAQFETKKLYAGAILEVCGUKLGRFPQVQAFVRSDKPKLFRGLQIKYVRGSDPVLKLLDDNGNIAEELSILKWNTDSVEEFLSEKLERI” is “failed”; for “MRVRTERLTLAGLSVLARIPEAPKALLLALHGLQGSKEHILALLPGYAERGFLLLAFDAPRHGEREGPPPSSKSPRYVEEVYRVALGFKEEARRVAEEAERRFGLPLFLAGGSLGAFVAHLLLAEGFRPRGVLAFIGSGFPMKLPQGQVVEDPGVLALYQAPPATRGEAYGGVPLLHLHGSRDLIVPLARMEKTLEALRPHYPEGRLARFVEEGAGHTLTPLMARVGLAFLEHWLEAR” it is “not failed”.
Regarding “MNSEVDTLFAQAYKLQYEGHLPQAISLYEQILAQSPKHTETLHFLGLTYAQLGDMENAILYFLQARKINPNDVGILNNLANAYKKAGQLDEAIKYYQQAIEIKPEYVQAHNNLAATYALLNNYQKALHHYVIAVNTEPDFSAAHFNLGLLLLKNQQLSAAKTQFNNVIALNPQHREAQFYLGILHLEDNLLSEAEQAFHKVLEQDHEHVQSLINLGVIALKREQNQLAVDYFTKALALDNEDIDARNNLAATFMHHDRFENALMHYDVLLKKEPDNLEYLYNSGVAQMALGHLNEATLLFDQILTLQSDHTPSLNNLAAIYLKMDMRETAREYLERALAINPDDVISRHMLNAITGATSVNTTEKYAQNLFNNYALYYDQHMQGELHYKIPHHIGRLIHQLQLLQTSHSLDLGCGTGLTGIVLREISKHLTGVDIAEKMIARAKEKNIYDLLVCSELIDFLRKDKNDYDLAVAADVLPYFGNLDDIFNSINQHLKQEGYFIFTTEISTTTPWKLESSARFSHQPEYIESLINKYQFHLIKQEKIPGRTQNKQVLEVMLYCIQKSTSCFVSN”, the protein production entry was “failed”.
The result for “MKQQKGVALITILVMVALATILAATIAKHQGNTAESTGYLMRQNQSLLYAKSAEAFFSELLIQDAENSPDVDHLAETWAQPMPPFPVEDGFVSGTLRDESGKFNLNNLVNADGTPNPAAQLWFEQLLVRVGLPAELSQAVIDWQDPDDQITGAMGAESNYYQGLSHPYLAANSKFQSVDELRLVRGFEGKKFDLIRPYISALPSVSTTKVNINTAPALLLASIDKNLDINAVQVALKEKMANLGYFKSVDELWALDAFKNIDQDSKTKISTLLDVKSSYFKAYIEVVLSERKRQFTSDLMRNNKKVYVYSRSLTPIFDIPQN” reads “failed”; that for “MDWYLKVLKNYVGFRGRARRKEYWMFILVNIIFTFVLGLLDKMLGWQRAGGEGILTTIYGILVFLPWWAVQFRRLHDTDRSAWWALLFLIPFIGWLIIIVFNCQAGTARRKPLWTRSKTGTLKQICSPDV”, “failed”; that for “MHSIRNFFCGQWSSSVRLDEKTVIITGANTGIGKETARDLARRGARVVMACRDLEKAEAARRELMDNSGNQNIVVKKLDLADTKSIKAFAELINKEEKQVNILINNAGIMMCPYSKTADGFEMQFGVNHLGHFLLIYLLLDLLKKSTPSRIVNVASVAHTWSGIHLEDINSEKVYSPRRAYGQSKLANILCTRSLAKRLQGSGVNVYSLHPGVVQSELFRNLSKPAQIAFKVFSPFTKTTSQGAQTTIYCAIEPELDRESGGYYSDCGPAQCSREASDDEMAQKLWELSCQMLGIIWD”, “failed”.
The entry for “MTRQLLIVPIVKLKNLLTGRWLRYAFLSVAGNALIWGTSIQYLKVTKPTYTSEFALILSGASFGVNVNLPGIGQATSSSSSAIGSSTYDARANYEYIFTSEAVLKKAAAIAKIPEEQFSKPRIKLLDNSTIMQFEVTGKSPKEAQNKSLALYQAMVHQITVLRTGEINQRKDPTQKTLLSSQQKLERAQKHLSEYKLRSGLSFPDQIGNLSSNIEQLRRQRAEAKAQENATNQKLQQLAKNIGLSPQEAADAFLLRVDQIFQQNLKDYSEATTTLEILMTKYGPNHPQVVKERIRQEAALAALLERSQILLEKPMTTTILNRLALAVNGSGRDTLFQNLVTYQSDQKGLQSQVKTLDSEIQRLEKRLEILSQRQSKLENLKRDVQIAEAMFASTLTKLDLGQGDIFAAYPLVQMLVEPNLPDQPTAPKKSFILAGSAAGSIFSTLGLCLVWIRKPWIEKLSKWLS” is “failed”.
With “MYRTTGPALRPGGFELTDWAVEHCRFQAGDRILDVGCGRGATVDRLRSHYHLEAYGIDPSATLLTLGQETYPDLPLSKARGEDIPFTNSCFDGVFVECSLSLMTDPDQALSEIRRVLKVKGKLIIHDVYARNPQGTPDLRELSIGTCIRNALVKEDLEHGLESKGLRTIHWQDHSPLLNRLMMELIMTHGSMSAFWLKSTHCSADSNRVQAALKKAKVGYFQLIAEKEAEKEAEHCPVR”, the protein production result was “failed”.
As to “MLKKITCYTVLYIFILLNQPIQAQTYVIPDANFKNYLALNIPYVLNSNQELIISNAKIFTGTINCVGMNIEDLSGLQYFYKLTQLNCNSNQLTFLPSLDSLKQLQHMWVYNNKLTSIPSVNQLTNLQTLNVKNNQLTNLPSLTGMTALKSLDCSSNKLTALPDLSTLLNLEEMYCYINFITNIPSVSNLLHLKIFNIENNAIALLPDISQNTKLEILQFDLNQIETIPPLTTLTALKQLIFAHNKISTLPDLSANTALFIITGDNNQLTHIPDLSGFDNLTHVELSHNQLTFEDILPSSKHPQFSTVFNIQPQDSLNVNQPVSAVKGSTITLPLQFDLAVSGSTYNWYKNNIYLSSTTIPVLTLSNITEMNAGRYTCIITNNTSRLTGITLHARSYSILVEPCIKFSYINYEITANDCSKGAAIQIDHTQISALNTPLTYALHPLNNQSSITSASAVLNDVMPGRYSLTISDVNNCSVELQNYIFIPVPAGCMDSFTPNGDGLEDTYLIDKPGYTKIYNKNGTLIRTLNTPAAWDGSDESGKLCPMGYYIIIIDGKEKTGVVLIN”, the protein production entry is given as “failed”.
For “MVERTAVFPAGRHSLYAEHRYSAAIRSGDLLFVSGQVGSREDGTPEPDFQQQVRLAFDNLHATLAAAGCTFDDIIDVTSFHTDPENQFEDIMTVKNEIFSAPPYPNWTAVGVTWLAGFDFEIKVIARIPEQ”, the protein production entry is “not failed”.
The entry for “MARKCEITGKKTMFGNNVPRKGLAKKKGGAGQHIGVKTKRTFKVNLINKKFFIPNLGRSVSIKVSANALRSISKIGLDAFLKKNCKKIENFLLEHHHHHH” is “failed”; for “MNIVLFHSTLGPRPAVRQAADRLRDAGHQVWTPDLFEGRTFDTVEEGMAHQDGIGREELLKRAVLAAAPYSERGLVYAGFSLGASIAQTLALGDHRARGLLLLHGTSDLAPNASVDELPVQLHVAEPDPFETDDWLSAWYLQMGRIGADVEVHRYPGAGHLYTDPGLDDYDAEAAEATWRVALGFLESLQEAQAGE” it is “failed”.
The entry for “MNQFGPSALINLSNFSSIKPEPASTPPQGSMANSTAVVKIPGTPGAGGRLSPENNQVLTKKKLQDLVREVDPNEQLDEDVEEMLLQIADDFIESVVTAACQLARHRKSSTLEVKDVQLHLERQWNMWIPGFGSEEIRPYKKACTTEAHKQRMALIRKTTKK” is “failed”; for “MPEEVSNEIEAPSLHTPEEVLLHYWGYPSFRPVQLPIIESVLAGKDTLGLLPTGGGKSITFQVPGLLLPGLTLVVTPLIALMRDQIMGLRQKGIKATAVHAGMTREQIITTLDNCIYGRYKFLYVSPERLGSELFLSRLHALRVSLLVVDECHCISQWGYDFRPAYLSIADIREALPDVPVLALTATATRPVIDDIQRILRFPEPNVLRKSFFRPNLSYSIRRTADKETMLLHILSRVDGSAVVYCRNRDKARDLARFLGENGFSADFYHAGLNHVTREIRQKSWMEGETRIIVCTNAFGMGIDKPDVRLVLHMEMPSSPEEYFQEAGRAGRDGERAYAVLLAGEDDIFNLKRRVSNEFPPREYIATVYNRICNYLQIGEGEGFERSFDFDIDAFCRNFRMFPTQVLAAIRILDVAGIWEYREEKTRSRLTIQVQRDELYRMRSEQASDSVLTALMRTYDGLFADYVSIVESELAEKTGLSVDQVYQQLLLLNKAGIVNYIPQKNLPRIYFLTRREDAELLQIPRAAYEDRRDRLKARIDQSLRYIEEENTCRSRMLLAYFGEEQSHNCKLCDVCLRRKDGELHHHEVDDLLHFLEQRLTEETPYVLIADICRELHHHPDVVLKAIRFVMKESWQYSTDGDTVFLTHKLPGGLNL” it is “failed”; for “MMNDSKARYGSITRFFHWSMAILVSWQFLKFFDRINDGEHWVGETLVPWHISIGSLILVLIVLRLGWTVKEKGNRPEHGSIIGVLAKIGHGLLYVALVLMPVTGIFYMVGNGYGLSAFNLEIIAKGEEVSWLINIGSLHSYIAWGLLFLVAGHIGMAFVHQFIIKDGTLKRMM” it is “failed”.
